From IntAct's records for PubMed 20010843

B1: Tryptophan--tRNA ligase, cytoplasmic (Homo sapiens), P23381 (parent)
chain: MPNSEPASLLELFNSIATQGELVRSLKAGNASKDEIDSAVKMLVSLKMSYKAAAGEDYKADCPPGNPAPTSNHGPDATEAEEDFVDPWTVQTSSAKGIDYDKLIVRFGSSKIDKELINRIERATGQRPHHFLRRGIFFSHRDMNQVLDAYENKKPFYLYTGRGPSSEAMHVGHLIPFIFTKWLQDVFNVPLVIQMTDDEKYLWKDLTLDQAYSYAVENAKDIIACGFDINKTFIFSDLDYMGMSSGFYKNVVKIQKHVTFNQVKGIFGFTDSDCIGKISFPAIQAAPSFSNSFPQIFRDRTDIQCLIPCAIDQDPYFRMTRDVAPRIGYPKPALLHSTFFPALQGAQTKMSASDPNSSIFLTDTAKQIKTKVNKHAFSGGRDTIEEHRQFGGNCDVDVSFMYLTFFLEDDDKLEQIRKDYTSGAMLTGELKKALIEVLQPLIAEHQARRKEVTDEIVKEFMTPRKLSFDFQ
partner: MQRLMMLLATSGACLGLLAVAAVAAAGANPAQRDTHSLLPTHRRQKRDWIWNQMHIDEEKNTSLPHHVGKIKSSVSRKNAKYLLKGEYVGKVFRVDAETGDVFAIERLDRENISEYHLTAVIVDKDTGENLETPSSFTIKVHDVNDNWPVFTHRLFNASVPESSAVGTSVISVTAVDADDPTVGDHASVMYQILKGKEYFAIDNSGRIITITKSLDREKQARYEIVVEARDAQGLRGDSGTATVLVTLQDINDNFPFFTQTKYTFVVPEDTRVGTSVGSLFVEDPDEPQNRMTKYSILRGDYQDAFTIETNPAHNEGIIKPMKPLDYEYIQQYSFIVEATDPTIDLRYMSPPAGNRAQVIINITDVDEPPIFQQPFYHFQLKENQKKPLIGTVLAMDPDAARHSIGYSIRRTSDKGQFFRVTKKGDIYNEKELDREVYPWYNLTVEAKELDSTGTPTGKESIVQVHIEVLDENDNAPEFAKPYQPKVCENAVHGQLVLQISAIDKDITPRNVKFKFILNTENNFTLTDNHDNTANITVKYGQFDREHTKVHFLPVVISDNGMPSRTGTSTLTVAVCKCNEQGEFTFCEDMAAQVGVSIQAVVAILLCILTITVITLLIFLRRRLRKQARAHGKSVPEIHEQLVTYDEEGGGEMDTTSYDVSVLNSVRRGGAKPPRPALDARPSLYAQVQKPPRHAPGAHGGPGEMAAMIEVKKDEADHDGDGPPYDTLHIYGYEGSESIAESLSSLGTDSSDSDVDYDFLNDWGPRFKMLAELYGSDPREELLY
B2: Cadherin-5 (Homo sapiens), P33151 (parent)
chain: B1 partner
partner: B1 chain

Variants of: B1
Conditions: with cadh5_human CDH5, P33151

Effect of a mutation on the interaction, disrupting interaction:
A310W
Y159A;Q194A
G161W
G172M

Variants of: B2
Conditions: with sywc_human WARS1, P23381

Effect of a mutation on the interaction, disrupting interaction:
W51A
W49A
W49A;W51A
